Results from US20210162028A1, “Methods for Inducing Intermittent Fasting and Modulating Autophagy” (The Hong Kong Polytechnic University, priority 2019, published 2021).
“Also recorded” adds a separate entry of the source.

How the values were obtained:
[1] = Insulin tolerance test (ITT); assay type: in vivo, mouse
Source text: In terms of reversing insulin resistance on pre-existing obese mice, insulin tolerance test (ITT) was employed (FIG. 59).
In terms of reversing insulin resistance on pre-existing obese mice, insulin tolerance test (ITT) was employed (FIG. 68A).

[2] = Fat pad and organ mass at end of treatment; assay type: in vivo, mouse
[3] = Barnes maze test for spatial learning and memory; assay type: in vivo, mouse; conditions: DIO C57BL/6J male mice on HFD; weekly, at 43-44 weeks of treatment
Procedure: To determine whether N-ABD094-rhArg [SEQ ID NO: 50], which can induce repetitive intermittent fasting cycles, has beneficial effects on cognitive performance, the Barnes maze test was conducted over ten days to evaluate spatial learning and memory function. The test was performed on a flat circular platform (100 cm in diameter, 1.5 cm thick, elevated 40 cm above the floor) with twenty evenly-spaced holes (7 cm in diameter) distributed around the circumference, and an escape box was placed under one of the holes. Prior to experimentation, each mouse was guided to the specific hole that was positioned over the escape box and left for 180 seconds. Subsequently, each mouse was trained to find the escape hole by placing the mouse in the center of the platform under a small black chamber for three seconds, the chamber was then lifted, and mouse was allowed to find the escape hole within 180 seconds. The platform was brightly illuminated and cooled using a desk fan as adverse stimuli. If the mouse was unable to find the target hole in the allowed time, it was guided to the escape box. Two trials were performed each day for four consecutive days as training period, after which the short- and long-term spatial memory of the mouse was probed on Day 5 and Day 10 respectively, by removing the escape box and allowing them to explore the platform for a full 180 seconds. Each trial was recorded directly over the platform. For each trial on Day 1 to 4, the time required to find the escape hole and exit the platform, and the type of exploratory pattern (random, serial, or direct) in exploring were recorded. For each probe trial on Day 5 and 10, the number of times the mice investigated each of the twenty holes was recorded over 180 seconds, with an instance of investigation defined as the localization of the snout inside a given hole.
Spatial memory loss is a prominent feature in rodent models of type 2 diabetes and obesity [Boitard et al., 2014; Underwood and Thompson, 2016]. To investigate whether arginase treatment could prevent spatial memory loss in mice fed a HFD, DIO C57BL/6J male mice were subjected to assessment of spatial memory by Barnes maze test at 43 weeks after receiving weekly administration of N-ABD094-rhArg (SEQ ID NO: 50) starting from 17-week old.

[4] = test system: primary culture of mouse hypothalamic neurons; test: Western blot of primary culture of mouse hypothalamic neurons; assay type: cell-based; conditions: 2 U/mL
Source text: The arcuate nucleus in the hypothalamus has received extensive attention as an integrator and regulator of energy homeostasis and appetite. These neurons can rapidly sense metabolic fluctuations in the blood. Others have recently implicated autophagy in central appetite regulation and leptin sensitivity (Park et al., Nature Communications. 2020; 11: 1914). Knockdown of an essential autophagy gene autophagy-related 7 (Atg7), leads to accumulation of p62 in POMC neurons, resulting in an increase in bodyweight and appetite. Besides, it has been shown that amino acid deprivation/imbalance can trigger a reduction in food intake via eIF2α/ATF4 pathway [Maurin et al., Cell Rep. 2014 Feb. 6(3): 438-444]. In our study, mature hypothalamic neurons (after 14 day in vitro culture) were exposed to vehicle or 2 U/mL N-ABD094-rhArg (SEQ ID NO: 50) for 1 hr, 4 hrs, 8 hrs or 24 hrs. After treatment, proteins were harvested from whole cell lysate of neurons and subjected to western blot analysis for examining the short-term effect of arginine depletion on hypothalamic neurons. Autophagy markers (LC3B and p62) were analyzed. […] These findings supported that N-ABD094-rhArg (SEQ ID NO: 50) induced an autophagic flux in hypothalamic neurons.

[5] = Fat pad and organ mass at end of treatment; assay type: in vivo, mouse; conditions: DIO C57BL/6J male mice on HFD, about 600 U once a week, 34 weeks
Source text: Other than WAT and BAT, obesity is associated with excessive accumulation of lipids in the liver (hepatic steatosis). Indeed, the liver of vehicle-treated DIO mice was markedly enlarged (FIG. 7A), with a mass about 3 times (4.68 g) that of the lean control (1.73 g) (FIG. 7B).
Other than liver, obesity is also commonly associated with lipid accumulation in the kidney (renal steatosis) and heart (cardiac steatosis), causing lipotoxicity and dysfunction of these organs. Indeed, there was an increase in kidney and heart mass in DIO mice treated with vehicle (FIG. 8A and FIG. 9A).

[6] = DIO C57BL/6J male mice on HFD, 300 U rhArg once a week and/or 300 mg/kg metformin daily
[7] = DIO C57BL/6J male mice on HFD, 600 U once a week, 5 weeks (artificial IF experiment)

B1: N-ABD094-rhArg: recombinant human arginase fused to albumin binding domain ABD094 (SEQ ID NO: 50); engineered long-acting arginine-depleting enzyme (protein)
chain: MHHHHHHDEAVDANSLAEAKEAANAELDSYGVSDFYKRLIDKAKTVEGVEALKDAILAALPSGSNNNNNNGSGGMSAKSRTIGIIGAPFSKGQPRGGVEEGPTVLRKAGLLEKLKEQECDVKDYGDLPFADIPNDSPFQIVKNPRSVGKASEQLAGKVAEVKKNGRISLVLGGDHSLAIGSISGHARVHPDLGVIWVDAHTDINTPLTTTSGNLHGQPVSFLLKELKGKIPDVPGFSWVTPCISAKDIVYIGLRDVDPGEHYILKTLGIKYFSMTEVDRLGIGKVMEETLSYLLGRKKRPIHLSFDVDGLDPSFTPATGTPVVGGLTYREGLYITEEIYKTGLLSGLDIMEVNPSLGKTPEEVTRTVNTAVAITLACFGLAREGNHKPIDYLNPPK
modifications: N-ABD094-rhArg, Synthesized in the Lab
notes: engineered long-acting arginine-depleting enzyme
- Insulin sensitivity in ITT ([1]; 16-month old DIO C57BL/6J male mice on HFD, once a week, at 9 weeks): markedly reverse pre-existing insulin resistance; also recorded: effectively reverse insulin resistance
- Insulin sensitivity in ITT ([1]; DIO C57BL/6J male mice on HFD, 300 U/week rhArg and/or 300 mg/kg metformin, after 6 weeks): marginal effect on improving insulin sensitivity but not reach statistical significant
- Insulin sensitivity in ITT ([1]; DIO C57BL/6J male mice on HFD, 600 U once a week, after 2 weeks (reduced daily food intake experiment)): marked increase in insulin sensitivity by 2 weeks after treatment
- Insulin sensitivity in ITT ([1]; DIO C57BL/6J male mice on HFD, 600 U once a week, at 2 and 4 weeks (artificial IF experiment)): reversal of insulin resistance and marked increase in insulin sensitivity by 2 weeks after treatment; also recorded: significant improvement in insulin sensitivity by 2 weeks
- Insulin sensitivity in ITT ([1]; DIO C57BL/6J male mice on HFD, about 600 U once a week, at 16 and 32 weeks): complete reversion of insulin resistance; also recorded: effectively reverse insulin resistance
- Insulin sensitivity in ITT ([1]; DIO C57BL/6J male mice on HFD, rhArg weekly and/or 0.33 mg/day RA, after 6 weeks): marginal effect on improving insulin sensitivity but not reach statistical significant
- Insulin sensitivity in ITT ([1]; DIO ICR female mice on HFD, once a week, at 15 and 31 weeks): better insulin sensitivity than age-matched mice in CD (vehicle) group
- Fat pad mass of perirenal and inguinal WAT, interscapular BAT and liver mass ([2]; 17-month old C57BL/6J male mice on chow diet, once a week, 21 weeks): significant reduction in the fat pad mass
- Mass of liver ([2]; 17-month old C57BL/6J male mice on chow diet, once a week, 21 weeks, versus CD Old (vehicle) and CD Young (vehicle)): the lowest amongst all 3 groups
- Mass of organs including liver, kidney and BAT [2, 6]: cannot reduce the mass of most organs
- Visceral and subcutaneous fat mass [2, 6]: did not reduce body fat
- Fat pad mass of perirenal and inguinal WAT and interscapular BAT [2, 7]: marked reduction in the fat pad mass
- Liver mass [2, 7]: prominently reduced to the same extent for both groups
- Liver weight ([2]; DIO C57BL/6J male mice on HFD, 600 U once a week, 12 weeks): the weight was similar to the lean control
- Fatty pancreas ([2]; DIO C57BL/6J male mice on HFD, half dose alone): can also reverse the fatty pancreas
- Mass of organs including liver, pancreas and BAT ([2]; DIO C57BL/6J male mice on HFD, rhArg once a week alone or 0.33 mg RA daily alone): can already reduce the mass of most organs
- Visceral and subcutaneous fat mass ([2]; DIO C57BL/6J male mice on HFD, rhArg once a week and/or 0.33 mg RA daily): did not reduce body fat
- Fat pad mass (WAT, BAT) and liver, kidney and heart mass ([2]; DIO ICR female mice on HFD, once a week, 56 weeks): significantly less than that of HFD-fed mice treated with vehicle
- Barnes maze: exploratory pattern (search mode) on Day 1 [3]: predominately used a serial-type exploratory pattern; also recorded: significantly improve their search mode
- Barnes maze: latency to exit the platform in training period [3]: could exit the platform significantly earlier than HFD-fed mice treated with vehicle; also recorded: significantly reduce the total latency
- Barnes maze: probe trial Day 5 (short-term memory) [3]: explored the holes nearest to the target in increasing frequency with the target hole being the most-explored hole
- Barnes maze: probe trial Day 10 (long-term memory) [3]: Such trends were maintained on Day 10
- ATF4 level ([4]; 24 hrs): dramatic increase
- Level of LC3B-II ([4]; after 1 hr and 4 hrs): significantly increased
- Phosphorylation level of p70S6K1 ([4]; after 1 hr, 4 hrs, 8 hrs or 24 hrs): significantly decreased
- Level of p62 ([4]; after 4 hrs and 8 hrs): significantly decreased
- Proportion of glycosylated POMC ([4]; after 24 hrs): significantly increased
- Phosphorylation level of eIF2α ([4]; at 8 hrs or 24 hrs): significant increase
- Kidney and heart mass [5]: significantly less than that of the vehicle-treated DIO mice
- Mass of perirenal, inguinal and interscapular fat pad, relative to DIO mice treated with vehicle [5]: less than 20%
- Liver mass ([5]; vehicle DIO 4.68 g, lean control 1.73 g): 1.39 g
